Assay results reported in patent US20190184035, “BCL11A HOMING ENDONUCLEASE VARIANTS, COMPOSITIONS, AND METHODS OF USE” (bluebird bio, Inc., published 2019).

T1: BCL11A.B4.A3 I-OnuI homing endonuclease variant (Ophiostoma novo-ulmi)
T1 chain: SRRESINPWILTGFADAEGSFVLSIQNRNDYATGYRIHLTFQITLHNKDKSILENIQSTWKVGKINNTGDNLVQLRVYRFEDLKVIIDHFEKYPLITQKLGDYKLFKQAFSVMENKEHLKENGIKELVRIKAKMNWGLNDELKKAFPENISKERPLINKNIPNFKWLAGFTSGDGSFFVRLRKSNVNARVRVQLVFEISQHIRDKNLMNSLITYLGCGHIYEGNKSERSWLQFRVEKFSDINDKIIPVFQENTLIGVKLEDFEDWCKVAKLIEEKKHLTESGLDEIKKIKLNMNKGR

T2: BCL11A.B4.A3 I-OnuI homing endonuclease variant (mammalian expression) (Ophiostoma novo-ulmi)
T2 chain: T1 chain

B1: BCL11A HE target site (dsDNA)
DNA 1: CAGTTGCTTTTATCACAGGCTC
DNA 2: GAGCCTGTGATAAAAGCAACTG

Key:
[1] = system: CCR5 megaTAL (Artificial); assay: cell_activity; settings: human CD34+ cells; full megaTAL site not given, HE site given
[2] = target: T1, BCL11A.B4.A3 I-OnuI homing endonuclease …; assay: flow; yeast surface display equilibrium binding titration
Source text: The DNA binding affinity and cleavage specificity of the I-OnuI variant BCL11A.B4.A3 was characterized. A plasmid encoding the BCL11A.B4.A3 variant identified during reprogramming (SEQ ID NO: 34) was transformed into S. cerevisiae for surface display.

[3] = target: T2, BCL11A.B4.A3 I-OnuI homing endonuclease …; assay: cell_activity; HEK 293T chromosomal mCherry reporter; settings: tags: mammalian expression plasmid
Method: The activity of reprogrammed I-OnuI HEs that target the GATA-1 motif in the BCL11A gene was measured using a chromosomally integrated fluorescent reporter system (Certo et. al., 2011). Fully reprogrammed I-OnuI HEs that bind and cleave the BCL11A target sequence were cloned into mammalian expression plasmids and then individually transfected into a HEK 293T […] cell line that was reprogrammed to contain the BCL11A target sequence upstream of an out-of-frame gene encoding the fluorescent mCherry protein. Cleavage of the embedded target site by the HE and the subsequent accumulation of small insertions or deletions, caused by DNA repair via the non-homologous end joining (NHEJ) pathway, results in approximately one out of three repaired loci placing the fluorescent reporter gene back “in-frame”. mCherry fluorescence is therefore a readout of endonuclease activity at the chromosomally embedded target sequence. […] FIG. 4A.
A secondary I-OnuI variant library was generated by performing random mutagenesis one of the reprogrammed I-OnuI HEs that targets the BCL11A target site, identified in the initial reporter screen (BCL11.A.B4, SEQ ID NO: 6). In addition, display-based flow sorting was performed under more stringent cleavage conditions (pH adjusted to 7.2) in an effort to isolate variants with improved catalytic efficiency. FIG. 4B. […]

Molecule	activity [1] [% indels]	Kd [2] [nM]	activity [3] [fold vs BCL11A.B4]
CTTCCAGGAATTCTTTGGCCTG (double strand) [CCR5 HE target site]	10		
B1		~0.5	~3
